Laboratory results from patent US10227575B2, “Multi-domain enzymes having cutinase activity, compositions comprising same and uses thereof” (OZYMES, priority 2015, dated 2019).

Legend:
[1] = pH optimum in Universal Buffer; format: biochemical; conditions: pH 5-11, p-nitrophenyl butyrate
Description: (§1) Esterase activity was determined by monitoring the formation of pNP at 410 nm from various pNP-esters using a Beckman UV spectrophotometer (model DU 640) (21). Substrates were dissolved in isopropanol and were added to 50 mM sodium phosphate buffer pH 8.0 to give 10% (v/v) total isopropanol concentration in a 1 mL reaction volume. pNP-butyrate was used at a final concentration of 1.2 mM. For pNP-caprylate, myristate and palmitate, the final concentration ranged from 0.1 to 0.5 mM. The reaction (1 mL) was started by adding an appropriate amount of enzyme. One enzyme unit (U) is defined as the amount of enzyme that produced 1 μmol of product (pNP) per min; specific activity is expressed as U/mg protein. A molar extinction coefficient of 15 mM^−1 cm^−1 for pNP is used for calculating enzyme activity.
Universal Buffer solutions were prepared according to Britton and Robinson (Surinenaite et al., 2002), having the selected pH value from 5-11. Activity of KrCUT and KrCUT189 were measured at the indicated pH, using p-nitrophenyl butyrate as substrate as described in Example 1, section 1.6). Curves were obtained by plotting values of activity against pH.

[2] = Description: Molar masses of the samples were determined with universal calibration with the refractive index detector and the viscosity detector. The universal calibration curve was based on polystyrene standards [Polymer Laboratories (Amherst, Mass.) and Aldrich (Oakville, ON)] using the molar masses determined by the manufacturer and the intrinsic viscosities measured by the apparatus. The software OmniSEC™ software from Viscotek was used for data collection and calibration. Separation in THF was performed by injecting 100 μL of 1.5-2 mg/mL solutions of standards or samples into thermostatically controlled SuperRes™ columns [35° C.; PAS-102, PAS102.5, PAS-103L, each 300 mm×8 mm; PolyAnalytik (London, ON)]. The flow rate was 1 mL/min.
Alternatively, a thin film was prepared from 1 g of commercial available PCL pellets and used for degradation. The polymer was dissolved in dichloromethane in a 1 L beaker. The solvent was allowed to evaporate overnight and the resulting film dried to constant weight under reduced pressure. Prior to enzymatic treatment the film was cut into pieces (20 mg) of approximately 1.5 cm×1.5 cm and thickness of approximately 0.1 mm. The reaction mixture was monitored by HPLC and SEC as described above.
To quantify this further, pellets of polycaprolactone (PCL) as well as films of PCL were incubated with KrCUT at various enzyme concentrations (1.25 μM, 2.5 μM, and 5 μM representing 4.7, 9.5 and 19 enzyme Units) at 37° C. The degradation of the polymer was followed over time by analyzing aliquots of the reaction mixture by HPLC for the detection of the released monomer (6-hydroxyhexanoic acid) and characterization of the remaining polymer by SEC after lypholization of the sample.

[3] = Substrate range on p-NP esters, KrCUT versus KrCUT189; format: biochemical
Description: as §1

[4] = Adsorption assay on PHB granules (Langmuir isotherm); format: binding
Description: Purified KrCUT of concentrations ranging from 0.16 to 3.2 mg/mL were mixed with 25 mg PHB in 50 mM sodium phosphate (pH 8.0) in a total volume of 1 mL and mixed by gently shaking for 3 h. The PHB polymer was removed by centrifugation and the concentration of protein in the supernatant was determined by the BCA method. The concentration of bound protein at a particular concentration of cutinase was calculated as the difference between a control without added PHB and free cutinase after incubation with PHB.
Adsorption assays were carried out following procedures of Kasuya et al. (1999). Purified KrCUT and KrCUT189 at concentrations ranging from 0.16 to 3.2 mg/mL were added to a suspension of 25 mg PHB in 50 mM sodium phosphate (pH 8.0) in a total volume 1 mL. The mixture was incubated at room temperature with gentle shaking for at least 3 h. The PHB polymer was removed by centrifugation and the concentration of protein in the supernatant was determined by the BCA method. The concentration of bound protein at a particular concentration of cutinase was calculated as the difference between a control without added PHB and free cutinase after incubation with PHB. An isotherm of [Bound](mg/mg PHB) vs [Free] (mM) was generated and binding parameters were determined by non-linear regression using the Langmuir equation:
[formula] where [E]=Ead+[E]e, is the concentration of the protein added; Emax is the maximum amount of protein adsorbed on the polyester granules, and K is the adsorption equilibrium constant of the protein.

[5] = Degradation of poly(1,3-propylene adipate); conditions: 2.5 μM, after 24 hours

B1: KrCUT189: truncated KrCUT lacking the T/P-rich linker and polymer-binding domain; cutinase catalytic domain, SEQ ID NO: 2 (protein)
chain: ATCSDVDVVFARGTGETPGLGVVGGPFVRSLTGELSDRTVTSHAVDYAASSSQASAGPGATAMSAHVREVAAACPSTRFVLGGYSQGATVTDIALGIRTGTTTGTPVPAELAGRVAAVVVFGNPLGLSGRTIATASSTYGPKSKDYCNSSDSVCGSAPKTGTGGHLSYASNGSTTDGARFAAGLVRAAG
modifications: Kineococcus radiotolerans; (1)..(189) KrCUT catalytic domain (KrCUT189)
- pH optimum [1]: 8
- degradation of PCL pellets and PCL films compared with KrCUT [2]: Nearly identical results
- activity towards pNB-acetate [3]: little activity
- activity towards pNP-myristate compared to KrCUT [3]: higher
- activity with various substrates compared to the full length protein [3]: lower activity
- substrate giving the highest activity ([3]; p-NP esters): pNP-myristate
- binding to PHB [4]: no binding
- adipic acid found in the reaction mixture [5]: 17%
